For the assay, the target named is acetylesterase LgEstI from Lactococcus garvieae (Lactococcus garvieae). The experiment in a line: SEC; Superdex 200 10/300 GL; 20 mM Tris-HCl pH 8.0, 200 mM NaCl, 1 mM TCEP, 5% glycerol; standard curve from a protein standard mix of 15-600 kDa. For orientation: In gel filtration, larger molecules generally elute earlier.

In publication PMC9901739 one finds stoichiometry N data, which are given here for 1 substance.

What is called stoichiometry N is the number of molecules, sites or subunits per partner or assembly. The substance “acetylesterase LgEstI from Lactococcus garvieae (enzyme)” came in with a stoichiometry N of 2.
